Test results: patent publication US20150337336A1 (PHYTOGENE, published 2015)

Target: the molecule itself
Test: X-ray crystal structure at 2.15 Å, space group C2, 3 chains per asymmetric unit; homodimer seen in the crystal
Procedure: Crystals of mutant cinnamic acid decarboxylase FDC (K190E) in complex with 3-hydroxyl cinnamic acid were grown by the vapor diffusion method. Commercial screening Kit (Hampton research, Qiagen, Emerald Biosystems) was used for screening crystallization conditions. Different volume ratio of protein and reservoir were tested for crystallization. Hanging drops containing a 1:1, 1:2, or 2:1 mixture of protein (5-10 mg/ml) and crystallization buffer (10% (w/v) polyethylene glycol (PEG) 6000, 5% (w/v) 2-methyl-2,4-pantanediol (MPD), 0.1 M HEPES, pH 7.5, and 2 mM DTT) were maintained at 4° C. In particular, well diffracted crystals were grown in 7-11% (w/v) polyethylene glycol (PEG) 6000, 3% (w/v) 2-methyl-2,4-pantanediol (MPD), pH 6.5-7.5, and 2 mM DTT with 0.1% 3-hydroxyl cinnamic acid. Crystal conditions were further improved by adding 0.01M MnCl2, 0.5% (w/v) polyvinylpyrrolidone K15, 0.2M NDSB-201 or 2% (w/v) benzamidine hydrochloride as an additive.
The FDC(K190E) crystals grew in space group C2 with 3 chains per asymmetric unit. Unit cell dimensions for the crystal were a=249.51 Å, b=120.67 Å, c=158.49 Å, β=94.9°; Diffraction data were collected from single crystals mounted in a cryoloop and flash frozen in a nitrogen stream at 100 K and reduced with the HKL suite. Crystals were diffracted at 2.15 Å resolution. […]

B1: mutant cinnamic acid decarboxylase FDC (K190E) (enzyme)
chain: MRKLNPALEFRDFIQVLKDEDDLIEITEEIDPNLEVGAIMRKAYESHLPAPLFKNLKGASKDLFSILGCPAGLRSKEKGDHGRIAHHLGLDPKTTIKEIIDYLLECKEKEPLPPITVPVSSAPCKTHILSEEKIHLQSLPTPYLHVSDGGKYLQTYGMWILQTPDKKWTNWSIARGMVVDDKHITGLVIEPQHIRQIADSWAAIGKANEIPFALCFGVPPAAILVSSMPIPEGVSESDYVGAILGESVPVVKCETNDLMVPATSEMVFEGTLSLTDTHLEGPFGEMHGYVFKSQGHPCPLYTVKAMSYRDNAILPVSNPGLCTDETHTLIGSLVATEAKELAIESGLPILDAFMPYEAQALWLILKVDLKGLQALKTTPEEFCKKVGDIYFRTKVGFIVHEIILVADDIDIFNFKEVIWAYVTRHTPVADQMAFDDVTSFPLAPFVSQSSRSKTMKGGKCVTNCIFRQQYERSFDYITCNFEKGYPKGLVDKVNENWKRYGYK
notes: It was purified by the same process as FDC1: an N-terminal 6-His/SUMO tag was cleaved off by hydrolase; It was crystallised in complex with the small molecule 3-hydroxyl cinnamic acid; also called FDC1 K190E mutant; FDC mutant (K190E)
binding result: binds
